From patent publication US20180071818, “A PROCESS FOR THE PREPARATION OF BIO-ORGANIC COATED GOLD AND SILVER NANOPARTICLES USING BLUE LIGHT” (Council of Scientific & Industrial Research, published 2018)

Target: Gelsolin (full-length) (Homo sapiens, UniProt P06396 P06396:28-782)
Test: ELONA; aptamer-Ag nanoparticles coated directly, gelsolin 2 ug/well, anti-gelsolin detection; room temperature
Settings: tags: Sigma; His tag inferred from capture by anti-His antibody; label: silver nanoparticle
Procedure: In case of aptamer based Ag nanoparticles formation, reaction mixture was prepared by adding 18 μl of Aptamer 10.10R (SEQ ID No. 8) (4.86 μg/μl or 18 pmoles/μl) in each 0.2 ml of reaction volume of buffer (25 mM tris pH 8, 150 mM NaCl, 5 mM MgCl₂, 10 mM KCl, 0.01% tween and 2 mM CaCl₂) with 7.2 μl of AgNO₃ of 5 mM stock solution to form Ag nanoparticles. The final molar ratio of silver ions to aptamer 10.10R was kept constant at […]. Treated the ELISA plate with 1 μg/well streptavidin (1 mg/ml) and incubated the plate overnight at 4° C. For aptamer based Ag nanoparticles coating streptavidin was not used. The wells were blocked with 3% bovine serum albumin (BSA) in PBS and kept at room temperature for 2 hours to saturate excess binding sites. The wells were then washed three times with PBST and further added with 5, 10 and 20 μl of aptamer only and aptamer Ag nanoparticles (18 pmoles/μl), making aptamer working concentration of […]. All the coatings were performed in duplicates for two conditions one with and one without gelsolin in next step. […] The absorbance was measured with a multiskan ELISA reader at 450 nm.
It was observed that the coated aptamer or aptamer_Ag nanoparticles were captured by gelsolin which was further detected using anti-gelsolin antibody using an indirect ELISA based method (FIG. 4C). […]

Sequence of Gelsolin (full-length) (P06396 28-782, one chain of several): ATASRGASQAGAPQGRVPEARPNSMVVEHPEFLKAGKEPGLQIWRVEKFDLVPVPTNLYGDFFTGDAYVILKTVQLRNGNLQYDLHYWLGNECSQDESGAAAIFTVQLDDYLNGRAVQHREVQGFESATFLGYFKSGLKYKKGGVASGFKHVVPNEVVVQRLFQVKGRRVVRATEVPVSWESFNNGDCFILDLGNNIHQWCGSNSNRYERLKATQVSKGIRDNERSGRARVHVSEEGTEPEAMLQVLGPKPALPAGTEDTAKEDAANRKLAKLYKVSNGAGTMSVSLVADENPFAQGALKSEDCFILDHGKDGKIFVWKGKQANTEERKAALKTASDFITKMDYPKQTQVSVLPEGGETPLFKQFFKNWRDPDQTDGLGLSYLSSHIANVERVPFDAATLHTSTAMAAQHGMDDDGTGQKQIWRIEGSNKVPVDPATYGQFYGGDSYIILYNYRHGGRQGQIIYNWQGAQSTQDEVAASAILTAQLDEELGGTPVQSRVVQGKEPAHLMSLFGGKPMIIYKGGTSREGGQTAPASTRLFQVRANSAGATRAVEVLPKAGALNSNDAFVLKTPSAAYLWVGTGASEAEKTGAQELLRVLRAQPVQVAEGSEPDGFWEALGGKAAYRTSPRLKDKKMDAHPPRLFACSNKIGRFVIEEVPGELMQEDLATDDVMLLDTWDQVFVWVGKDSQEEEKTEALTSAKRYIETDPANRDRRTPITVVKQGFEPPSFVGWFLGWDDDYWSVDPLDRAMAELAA

B1: Aptamer 10.10R coated on Ag nanoparticles (ssDNA)
DNA: TCAAGTGGTCATGTACTAGTCAAGCACTTTCGCTGCTCGCTGGCGCCGCGCCCATCATATGTCCTTCTCTTCCCTA
Q: How did the binding signal turn out when B1 was run?
A: 3 fold vs aptamer only
